In patent publication US12269859B2, “Synthetic immune receptors and methods of use thereof” (Angeles Therapeutics, Inc., priority 2016, dated 2025):

B1: 062717-P06 (protein)
chain: MALPVTALLLPLALLLHAARPLEGKPIPNPLLGLDSTGSGEDLKNVFPPEVAVFEPSKAEIAHTQKATLVCLATGFYPDHVELSWWVNGKEVHSGVCTDPQPLKEQPALNDSRYCLSSRLRVSATFWQNPRNHFRCQVQFYGLSENDEWTQDRAKPVTQIVSAEAWGRADCGITSASYHQGVLSATILYEILLGKATLYAVLVSALVLMAMVKRKDSRGRAKRSGSGATNFSLLKQAGDVEENPGPTSMALPVTALLLPLALLLHAARPEVQLQQSGPGLVKPSQTLSLTCAISGDSVSSNSAAWNWIRQSPSRGLEWLGRTYYRSKWYSDYAVSVKSRITINPDTSKNQFSLQLNSVTPEDTAVYYCARDPYDFWSGYPDAFDIWGQGTMVTVSSGGGGSGGGGSGGGGSQSALTQPASVSGSPGQSITISCTGTSSDVGGYNYVSWYQQHPGKAPKVIISEVNNRPSGVSHRFSGSKSGNTASLTISGLQAEDEADYFCSSYTSGRTLYVFGTGSKVTVLGTREQKLISEEDGSGIQNPDPAVYQLRDSKSSDKSVCLFTDFDSQTNVSQSKDSDVYITDKCVLDMRSMDFKSNSAVAWSNKSDFACANAFNNSIIPEDTFFPSSDVPCDVKLVEKSFETDTNLNFQNLSVIGFRILLLKVAGFNLLMTLRLWSSRAKRSGSGVKQTLNFDLLKLAGDVESNPGPSRGHMTEYKPTVRLATRDDVPRAVRTLAAAFADYPATRHTVDPDRHIERVTELQELFLTRVGLDIGKVWVADDGAAVAVWTTPESVEAGAVFAEIGPRMAELSGSRLAAQQQMEGLLAPHRPKEPAWFLATVGVSPDHQGKGLGSAVVLPGVEAAERAGVPAFLETSAPRNLPFYERLGFTVTADVEVPEGPRTWCMTRKPGA
B2: 042517-B02 (protein)
chain: MALPVTALLLPLALLLHAARPQSALTQPASASGSPGQSVTISCTGTSSDVGGYNYVSWYQQHPGKAPKLMIYDVSNRPSGVSNRFSGSKSGNTASLTISGLQAEDEADYYCSSYTSSSTLYVFGTGTQLTVLLEDLKNVFPPEVAVFEPSKAEIAHTQKATLVCLATGFYPDHVELSWWVNGKEVHSGVCTDPQPLKEQPALNDSRYCLSSRLRVSATFWQNPRNHFRCQVQFYGLSENDEWTQDRAKPVTQIVSAEAWGRADCGITSASYHQGVLSATILYEILLGKATLYAVLVSALVLMAMVKRKDSRGRAKRSGSGATNFSLLKQAGDVEENPGPTSMDWIWRILFLVGAATGAHSFEEVQLQQSGPGLVKPSQTLSLTCAISGDSMLSNSDTWNWIRQSPSRGLEWLGRTYHRSTWYDDYASSVRGRVSINVDTSKNQYSLQLNAVTPEDTGVYYCARVRLQDGNSWSDAFDVWGQGTMVTVSSTRIQNPDPAVYQLRDSKSSDKSVCLFTDFDSQTNVSQSKDSDVYITDKCVLDMRSMDFKSNSAVAWSNKSDFACANAFNNSIIPEDTFFPSSDVPCDVKLVEKSFETDTNLNFQNLSVIGFRILLLKVAGFNLLMTLRLWSSRAKRSGSGVKQTLNFDLLKLAGDVESNPGPSRGHMTEYKPTVRLATRDDVPRAVRTLAAAFADYPATRHTVDPDRHIERVTELQELFLTRVGLDIGKVWVADDGAAVAVWTTPESVEAGAVFAEIGPRMAELSGSRLAAQQQMEGLLAPHRPKEPAWFLATVGVSPDHQGKGLGSAVVLPGVEAAERAGVPAFLETSAPRNLPFYERLGFTVTADVEVPEGPRTWCMTRKPGA
B3: 062717-O02 (protein)
chain: MALPVTALLLPLALLLHAARPLEGKPIPNPLLGLDSTGSGEDLKNVFPPEVAVFEPSKAEIAHTQKATLVCLATGFYPDHVELSWWVNGKEVHSGVCTDPQPLKEQPALNDSRYCLSSRLRVSATFWQNPRNHFRCQVQFYGLSENDEWTQDRAKPVTQIVSAEAWGRADCGITSASYHQGVLSATILYEILLGKATLYAVLVSALVLMAMVKRKDSRGRAKRSGSGATNFSLLKQAGDVEENPGPTSMALPVTALLLPLALLLHAARPEVQLQQSGPGLVKPSQTLSLTCAISGDSVLSNSDTWNWIRQSPSRGLEWLGRTYHRSTWYDDYASSVRGRVSINVDTSKNQYSLQLNAVTPEDTGVYYCARDRLQDGNSWSDAFDVWGQGTMVTVSSGGGGSGGGGSGGGGSQSALTQPASVSGSPGQSITISCTGTSSDVGGYNYVSWYQQHPGKAPKLMIYDVSNRPSGVSNRFSGSKSGNTASLTISGLQAEDEADYYCSSYTSSSTLVYVFGTGTKVTVLTREQKLISEEDGSGIQNPDPAVYQLRDSKSSDKSVCLFTDFDSQTNVSQSKDSDVYITDKCVLDMRSMDFKSNSAVAWSNKSDFACANAFNNSIIPEDTFFPSSDVPCDVKLVEKSFETDTNLNFQNLSVIGFRILLLKVAGFNLLMTLRLWSSRAKRSGSGVKQTLNFDLLKLAGDVESNPGPSRGHMTEYKPTVRLATRDDVPRAVRTLAAAFADYPATRHTVDPDRHIERVTELQELFLTRVGLDIGKVWVADDGAAVAVWTTPESVEAGAVFAEIGPRMAELSGSRLAAQQQMEGLLAPHRPKEPAWFLATVGVSPDHQGKGLGSAVVLPGVEAAERAGVPAFLETSAPRNLPFYERLGFTVTADVEVPEGPRTWCMTRKPGA
B4: 042517-A03 (protein)
chain: MALPVTALLLPLALLLHAARPQSALTQPASASGSPGQSVTISCTGTSSDVGGYNYVSWYQQHPGKAPKLMIYDVSNRPSGVSNRFSGSKSGNTASLTISGLQAEDEADYYCSSYTSSSTLYVFGTGTQLTVLLEIQNPDPAVYQLRDSKSSDKSVCLFTDFDSQTNVSQSKDSDVYITDKCVLDMRSMDFKSNSAVAWSNKSDFACANAFNNSIIPEDTFFPSSDVPCDVKLVEKSFETDTNLNFQNLSVIGFRILLLKVAGFNLLMTLRLWSSRAKRSGSGVKQTLNFDLLKLAGDVESNPGPTSMDWIWRILFLVGAATGAHSFEEVQLQQSGPGLVKPSQTLSLTCAISGDSMLSNSDTWNWIRQSPSRGLEWLGRTYHRSTWYDDYASSVRGRVSINVDTSKNQYSLQLNAVTPEDTGVYYCARVRLQDGNSWSDAFDVWGQGTMVTVSSTREDLKNVFPPEVAVFEPSKAEIAHTQKATLVCLATGFYPDHVELSWWVNGKEVHSGVCTDPQPLKEQPALNDSRYCLSSRLRVSATFWQNPRNHFRCQVQFYGLSENDEWTQDRAKPVTQIVSAEAWGRADCGITSASYHQGVLSATILYEILLGKATLYAVLVSALVLMAMVKRKDSRGRAKRSGSGATNFSLLKQAGDVEENPGPSRGHMTEYKPTVRLATRDDVPRAVRTLAAAFADYPATRHTVDPDRHIERVTELQELFLTRVGLDIGKVWVADDGAAVAVWTTPESVEAGAVFAEIGPRMAELSGSRLAAQQQMEGLLAPHRPKEPAWFLATVGVSPDHQGKGLGSAVVLPGVEAAERAGVPAFLETSAPRNLPFYERLGFTVTADVEVPEGPRTWCMTRKPGA

Test system: target antigen-expressing cell line
Assay: Jurkat NFAT-GFP assay, coculture with target cell lines expressing the respective target antigen (summary Table 10A)
Type: cell-based, human
Design: key: The signs +/−, +, 2+ etc. after the name of the cell lines indicate the relative degree of positivity on the Jurkat-NFAT-GFP assay as measured by the % GFP positive cells; +: relative degree of positivity on the Jurkat-NFAT-GFP assay as measured by the % GFP positive cells; 2+: relative degree of positivity on the Jurkat-NFAT-GFP assay as measured by the % GFP positive cells
Details: relative % GFP positive cells; for NFAT-GFP ASSAY Positive Cell lines: RAJI: SIR-expressing Jurkat-NFAT-GFP cells cocultured with RAJI
How it was run: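 Jurkat cells carrying an NFAT-driven GFP reporter and lentivirally expressing a SIR were cocultured with antigen-bearing target cells (E:T ~1:2) for about 4–18 h. GFP induction read by flow cytometry as % GFP+ cells, scored positive and graded (+/−, +, 2+) against parental Jurkat-NFAT-GFP cells.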

Row | Molecule | NFAT-GFP ASSAY Positive Cell lines: RAJI | NFAT-GFP ASSAY Positive Cell lines: NALM6 (SIR-expressing Jurkat-NFAT-GFP cells cocultured with NALM6)
1 | B1 | RAJI (+/−) | –
2 | B2 | RAJI (+), NALM6 | (+/−)
3 | B3 | RAJI (+/−) | –
4 | B4 | RAJI (+) | –
